The values that follow come from patent US20240132578A1.

Holding throughout (assay): cell-based or functional assay
Assay [1] has as its target HIV-1 Env of isolate MGRM-D-001 (clade D pseudovirus) (HIV-1).
Assay [2] deals with HIV-1 envelope glycoprotein (Env) of isolate MGRM-C-005 (HIV-1).
Assay [3] concerns the target HIV-1 envelope glycoprotein (Env) of isolate MGRM-C-006 (HIV-1).
In assay [4] the target is HIV-1 APV-6 envelope (Env) on pseudovirus (HIV-1).
Assay [5] deals with HIV-1 MGRM-G-001 Env (pseudovirus) (HIV-1).
Assay [6] addresses HIV-1 MGRM-AE-002 Env (pseudovirus) (HIV-1).
Assay [7] concerns the target HIV-1 Env of isolate MGRM-D-024 (clade D pseudovirus) (HIV-1).
For assay [8], the target named is HIV-1 IAVI-C3 envelope (Env) on pseudovirus (HIV-1).
For assay [9], the target named is HIV-1 Env of isolate MGRM-A-007 (clade A pseudovirus) (HIV-1).
For assay [10], the target named is HIV-1 92RW024 envelope glycoprotein (Env) on pseudovirus (HIV-1 (clade A)).
In assay [11] the target is HIV-1 APV-17 envelope (Env) on pseudovirus (HIV-1).
The target in assay [12] is HIV-1 Env of isolate MGRM-D-002 (clade D pseudovirus) (HIV-1).
In assay [13] the target is HIV-1 Env of pseudovirus MGRM-G-017 (HIV-1).
For assay [14], the target named is HIV-1 envelope glycoprotein (Env) of isolate MGRM-C-017 (HIV-1).
Assay [15] deals with HIV-1 MGRM-AG-002 Env (pseudovirus) (HIV-1).
Assay [16] addresses HIV-1 MGRM-AE-007 Env (pseudovirus) (HIV-1).
The target in assay [17] is HIV-1 envelope glycoprotein (Env) of isolate 92WR009, subtype A (HIV-1).
Assay [18] deals with HIV-1 envelope glycoprotein (Env) of isolate MGRM-Chronic-B-012, on pseudovirus (HIV-1).
In assay [19] the target is HIV-1 envelope glycoprotein (Env) of isolate MGRM-Chronic-B-003, on pseudovirus (HIV-1).
Assay [20] addresses HIV-1 92UG005 Env (HIV-1).
The target of assay [21] is HIV-1 envelope glycoprotein (Env) of isolate VLGCB3, on pseudovirus (HIV-1).
Assay [22] addresses HIV-1 envelope glycoprotein (Env) of isolate MGRM-Chronic-B-002, on pseudovirus (HIV-1).
For assay [23], the target named is HIV-1 envelope glycoprotein (Env) of isolate THRO.18, on pseudovirus (HIV-1).
Assay [24] deals with HIV-1 Env of isolate MGRM-AG-009 (pseudovirus) (HIV-1).
In assay [25] the target is HIV-1 envelope glycoprotein (Env) of isolate MGRM-AE-002, subtype AE (HIV-1).
For assay [26], the target named is HIV-1 JR-CSF Env N392Q (HIV-1 (isolate JR-CSF)) (UniProt P20871).
Assay [27] addresses HIV-1 Env of isolate MGRM-F1-017 (HIV-1).

Take 4E10 (antibody): the IC50, pseudovirus neutralization came out at 1.84 µg/mL in [1], 3.6 µg/mL in assay [7] and 9.44 µg/mL in [12]. The IC50 (µg/ml), pseudovirus neutralization in assay [2] worked out at 16.4 µg/mL; in assay [3], 4.94 µg/mL; in assay [5], 2.04 µg/mL; in [6] it was 0.55 µg/mL; in assay [9] it was 1.82 µg/mL; in assay [10] it was 8.88 µg/mL. Besides, the IC50 (µg/ml), pseudovirus neutralization in [13] stood at 1.14 µg/mL; in [14], 1.47 µg/mL; in assay [15] it was 0.8 µg/mL; in [16] it was 0.45 µg/mL. Besides, the neutralization IC50 was 0.4 µg/mL in assay [4], 5 µg/mL in assay [8] and 5.1 µg/mL in assay [11].

Regarding 4877_D15 (PGT-122) (antibody), the IC50, pseudovirus neutralization in assay [17] is 42.4 µg/mL; in [18], 0.066 µg/mL; in assay [19], 0.008 µg/mL; in assay [20], greater than 10 µg/mL; in assay [21], 0.008 µg/mL; in [22], 1.8 µg/mL. In addition, the IC50, pseudovirus neutralization in assay [23] and in [25] was greater than 50 µg/mL each time. In assay [24], this substance showed an IC50 (µg/mL), pseudovirus neutralization of 0.128 µg/mL.

In the case of 4858_P08 (PGT-123) (antibody), the IC50, pseudovirus neutralization turned out to be 15.7 µg/mL in [17]; 0.227 µg/mL in [18]; 0.008 µg/mL in assay [19]; 2.49 µg/mL in assay [20]; 0.004 µg/mL in assay [21]; 0.234 µg/mL in assay [22]. Also, the IC50, pseudovirus neutralization in [23] and in assay [25] was greater than 50 µg/mL each time. In assay [26], this substance gave a Fold IC50 increase relative to wild-type (pseudovirus neutralization) of 1 fold. The same substance showed an IC50 (µg/mL), pseudovirus neutralization in [24] of 0.073 µg/mL.

Consider 1496_C09 (PG9) (TCN-109) (antibody), for which the IC50 (µg/ml), pseudovirus neutralization in assay [2] was determined as 2.98 µg/mL; in [3], 0.23 µg/mL; in assay [5] it was 0.16 µg/mL; in assay [6], 0.04 µg/mL; in assay [9], 0.37 µg/mL; in [10] it was 0.18 µg/mL. Besides, the IC50 (µg/ml), pseudovirus neutralization in assay [13] was determined as 0.03 µg/mL; in assay [14], 1.52 µg/mL; in assay [15] it was 0.04 µg/mL. The neutralization IC50 was determined as 0.0869 µg/mL in assay [4], 12.9 µg/mL in [8] and 26.4 µg/mL in assay [11]. Moreover, the IC50, pseudovirus neutralization in assay [7] was determined as 0.03 µg/mL; in assay [12] it was 0.027 µg/mL.

As to b12 (antibody), the IC50, pseudovirus neutralization in assay [1] is greater than 50 µg/mL; in [7] it was 5.92 µg/mL; in assay [12], greater than 50 µg/mL. Also, the IC50 (µg/ml), pseudovirus neutralization was 2.66 µg/mL in [2]; greater than 50 µg/mL in assay [3]; greater than 50 µg/mL in assay [5]; 17.1 µg/mL in assay [6]; greater than 50 µg/mL in assay [9]; greater than 50 µg/mL in assay [10]. Moreover, the IC50 (µg/ml), pseudovirus neutralization in [13] was greater than 50 µg/mL; in assay [14], greater than 50 µg/mL; in assay [15] it was 0.89 µg/mL; in [16], greater than 50 µg/mL. For the same substance, the results for the neutralization IC50 in assay [4], in [8] and in assay [11] were greater than 25 µg/mL, 5 µg/mL and greater than 25 µg/mL, respectively.

Turning to 1443_C16 (PG16) (TCN-116) (antibody), the IC50, pseudovirus neutralization in assay [1] was greater than 50 µg/mL; in [7], 0.02 µg/mL; in assay [12] it was 0.01 µg/mL. Moreover, the IC50 (µg/ml), pseudovirus neutralization in assay [2] turned out to be 2.55 µg/mL; in assay [3] it was 2.62 µg/mL; in assay [5] it was 0.15 µg/mL; in assay [6] it was 0.01 µg/mL; in assay [9], 5.91 µg/mL; in assay [10], 0.08 µg/mL. The IC50 (µg/ml), pseudovirus neutralization in assay [13] amounted to 0.02 µg/mL; in assay [14] it was 1.8 µg/mL; in [15] it was 0.03 µg/mL; in assay [16] it was 0.04 µg/mL. The results for the neutralization IC50 in [4], in assay [8] and in [11] were 0.08 µg/mL, 14.8 µg/mL and greater than 50 µg/mL, respectively.

With PGV04 (antibody), the IC50 (µg/mL), pseudovirus neutralization in assay [24] was 0.148 µg/mL; in assay [27], 2.38 µg/mL.

As for 1495_C14 (PGC14) (antibody), the IC50, pseudovirus neutralization was greater than 50 µg/mL in assay [1], greater than 50 µg/mL in assay [7] and 29 µg/mL in assay [12]. Besides, the IC50 (µg/ml), pseudovirus neutralization in assay [2], in assay [3], in assay [5], in assay [6], in assay [9] and in assay [10] was greater than 50 µg/mL in each case. The IC50 (µg/ml), pseudovirus neutralization in [13], in assay [14], in assay [15] and in assay [16] was greater than 50 µg/mL each time. The values for the neutralization IC50 in assay [4], in assay [8] and in [11] were 7.41 µg/mL, greater than 50 µg/mL and greater than 50 µg/mL, respectively.

Turning to 2G12 (antibody), the IC50, pseudovirus neutralization in assay [1], in [7] and in assay [12] was greater than 50 µg/mL throughout. For the same substance, the IC50 (µg/ml), pseudovirus neutralization in assay [2], in [3], in assay [5], in [6], in assay [9] and in assay [10] was greater than 50 µg/mL in each case. The IC50 (µg/ml), pseudovirus neutralization in assay [13] was greater than 50 µg/mL; in assay [14], greater than 50 µg/mL; in assay [15], 0.54 µg/mL; in assay [16], greater than 50 µg/mL. The neutralization IC50 in assay [4] was 5.3 µg/mL; in assay [8], greater than 50 µg/mL; in [11], greater than 50 µg/mL.

Turning to 4838_L06 (PGT-121) (antibody), the IC50, pseudovirus neutralization in assay [17] was 1.74 µg/mL; in [18] it was 0.036 µg/mL; in assay [19], 0.011 µg/mL; in assay [20] it was greater than 10 µg/mL; in assay [21], 0.005 µg/mL; in assay [22], 0.386 µg/mL. The IC50, pseudovirus neutralization in [23] and in assay [25] was greater than 50 µg/mL in each case.

In the case of 2F5 (antibody), the IC50, pseudovirus neutralization is 0.63 µg/mL in assay [1], greater than 50 µg/mL in assay [7] and 24.6 µg/mL in assay [12]. Besides, the IC50 (µg/ml), pseudovirus neutralization in [2] is greater than 50 µg/mL; in assay [3], greater than 50 µg/mL; in assay [5], 4.1 µg/mL; in [6], 0.31 µg/mL; in assay [9] it was 16.3 µg/mL; in assay [10], 8.22 µg/mL. Further, the IC50 (µg/ml), pseudovirus neutralization in assay [13] is 0.6 µg/mL; in assay [14], greater than 50 µg/mL; in [15] it was 0.54 µg/mL; in [16], 0.07 µg/mL. Further, the neutralization IC50 was 0.1 µg/mL in assay [4], greater than 50 µg/mL in assay [8] and 2 µg/mL in assay [11].
